{"source": "patent US20050142634", "system": "modulator of non-genomic activity of nuclear receptors (MNAR)", "data": [{"substance": "cSrc", "values": [{"measurement": "cSrc enzymatic activity (acid denatured enolase as a substrate, [32P]-γATP, SDS-PAGE autoradiography)", "value": "MNAR itself strongly stimulates cSrc enzymatic activity"}]}]}
